Starred links: 1 amine or outer side, 2 acyl side, 3 side chain; linkers in the order of their positions; H or OH if unused. Positions of bridges follow the written chain, without caps; N, C: chain ends. Groups on a side chain read outwards from the residue. No end group written: not given here. *: point of attachment. C20 diacid = O=C(O)CCCCCCCCCCCCCCCCCCC(=O)*; C18 diacid = O=C(O)CCCCCCCCCCCCCCCCC(=O)*; γGlu = O=C(O)[C@H](CCC(=O)[*:2])N[*:1]
T1: human amylin 3 receptor (human, UniProt P30988 25-474; O60896 24-148)
T1 sequence (looked up) 1: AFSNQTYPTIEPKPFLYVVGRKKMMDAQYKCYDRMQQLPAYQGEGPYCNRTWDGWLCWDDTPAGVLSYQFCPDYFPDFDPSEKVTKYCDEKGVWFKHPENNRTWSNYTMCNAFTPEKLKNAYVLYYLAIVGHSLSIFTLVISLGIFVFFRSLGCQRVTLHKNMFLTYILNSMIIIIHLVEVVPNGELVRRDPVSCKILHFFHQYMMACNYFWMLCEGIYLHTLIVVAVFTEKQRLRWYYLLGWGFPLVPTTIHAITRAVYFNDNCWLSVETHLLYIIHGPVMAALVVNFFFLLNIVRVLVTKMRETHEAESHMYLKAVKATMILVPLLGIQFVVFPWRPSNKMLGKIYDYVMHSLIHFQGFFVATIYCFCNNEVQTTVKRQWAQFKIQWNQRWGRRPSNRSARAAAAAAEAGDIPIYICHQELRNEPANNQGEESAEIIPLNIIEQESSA
T1 sequence (looked up) 2: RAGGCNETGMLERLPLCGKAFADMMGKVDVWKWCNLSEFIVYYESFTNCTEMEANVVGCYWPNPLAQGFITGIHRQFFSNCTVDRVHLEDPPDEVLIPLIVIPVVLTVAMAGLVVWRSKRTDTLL

T2: human calcitonin receptor (human, UniProt P30988 25-474)
T2 sequence (looked up): T1 sequence (looked up) 1

B1: Compound A114 (peptide)
peptide: K([γGlu-γGlu-C20 diacid])CNTSTCATSRLANFLQKSSNNFGPILPPTKVGSETY-NH2
modifications: disulfide 2-7; N-terminus assumed
SMILES: CC[C@H](C)[C@H](NC(=O)[C@@H]1CCCN1C(=O)CNC(=O)[C@H](Cc1ccccc1)NC(=O)[C@H](CC(N)=O)NC(=O)[C@H](CC(N)=O)NC(=O)[C@H](CO)NC(=O)[C@H](CO)NC(=O)[C@H](CCCCN)NC(=O)[C@H](CCC(N)=O)NC(=O)[C@H](CC(C)C)NC(=O)[C@H](Cc1ccccc1)NC(=O)[C@H](CC(N)=O)NC(=O)[C@H](C)NC(=O)[C@H](CC(C)C)NC(=O)[C@H](CCCNC(=N)N)NC(=O)[C@H](CO)NC(=O)[C@@H](NC(=O)[C@H](C)NC(=O)[C@@H]1CSSC[C@H](NC(=O)[C@@H](N)CCCCNC(=O)CC[C@H](NC(=O)CC[C@H](NC(=O)CCCCCCCCCCCCCCCCCCC(=O)O)C(=O)O)C(=O)O)C(=O)N[C@@H](CC(N)=O)C(=O)N[C@@H]([C@@H](C)O)C(=O)N[C@@H](CO)C(=O)N[C@@H]([C@@H](C)O)C(=O)N1)[C@@H](C)O)C(=O)N[C@@H](CC(C)C)C(=O)N1CCC[C@H]1C(=O)N1CCC[C@H]1C(=O)N[C@H](C(=O)N[C@@H](CCCCN)C(=O)N[C@H](C(=O)NCC(=O)N[C@@H](CO)C(=O)N[C@@H](CCC(=O)O)C(=O)N[C@H](C(=O)N[C@@H](Cc1ccc(O)cc1)C(N)=O)[C@@H](C)O)C(C)C)[C@@H](C)O
B2: Compound A116 (peptide)
peptide: K([γGlu-C20 diacid])CNTSTCATSRLANFLQKSSNNFGPILPPTKVGSETY-NH2
modifications: disulfide 2-7; N-terminus assumed
SMILES: CC[C@H](C)[C@H](NC(=O)[C@@H]1CCCN1C(=O)CNC(=O)[C@H](Cc1ccccc1)NC(=O)[C@H](CC(N)=O)NC(=O)[C@H](CC(N)=O)NC(=O)[C@H](CO)NC(=O)[C@H](CO)NC(=O)[C@H](CCCCN)NC(=O)[C@H](CCC(N)=O)NC(=O)[C@H](CC(C)C)NC(=O)[C@H](Cc1ccccc1)NC(=O)[C@H](CC(N)=O)NC(=O)[C@H](C)NC(=O)[C@H](CC(C)C)NC(=O)[C@H](CCCNC(=N)N)NC(=O)[C@H](CO)NC(=O)[C@@H](NC(=O)[C@H](C)NC(=O)[C@@H]1CSSC[C@H](NC(=O)[C@@H](N)CCCCNC(=O)CC[C@H](NC(=O)CCCCCCCCCCCCCCCCCCC(=O)O)C(=O)O)C(=O)N[C@@H](CC(N)=O)C(=O)N[C@@H]([C@@H](C)O)C(=O)N[C@@H](CO)C(=O)N[C@@H]([C@@H](C)O)C(=O)N1)[C@@H](C)O)C(=O)N[C@@H](CC(C)C)C(=O)N1CCC[C@H]1C(=O)N1CCC[C@H]1C(=O)N[C@H](C(=O)N[C@@H](CCCCN)C(=O)N[C@H](C(=O)NCC(=O)N[C@@H](CO)C(=O)N[C@@H](CCC(=O)O)C(=O)N[C@H](C(=O)N[C@@H](Cc1ccc(O)cc1)C(N)=O)[C@@H](C)O)C(C)C)[C@@H](C)O
B3: Compound A73 (peptide)
peptide: SCNTSTCATQRLANEK([γGlu-C20 diacid])HKSSNNFGPILPPTKVGSETY-NH2
modifications: disulfide 2-7; N-terminus assumed
SMILES: CC[C@H](C)[C@H](NC(=O)[C@@H]1CCCN1C(=O)CNC(=O)[C@H](Cc1ccccc1)NC(=O)[C@H](CC(N)=O)NC(=O)[C@H](CC(N)=O)NC(=O)[C@H](CO)NC(=O)[C@H](CO)NC(=O)[C@H](CCCCN)NC(=O)[C@H](Cc1c[nH]cn1)NC(=O)[C@H](CCCCNC(=O)CC[C@H](NC(=O)CCCCCCCCCCCCCCCCCCC(=O)O)C(=O)O)NC(=O)[C@H](CCC(=O)O)NC(=O)[C@H](CC(N)=O)NC(=O)[C@H](C)NC(=O)[C@H](CC(C)C)NC(=O)[C@H](CCCNC(=N)N)NC(=O)[C@H](CCC(N)=O)NC(=O)[C@@H](NC(=O)[C@H](C)NC(=O)[C@@H]1CSSC[C@H](NC(=O)[C@@H](N)CO)C(=O)N[C@@H](CC(N)=O)C(=O)N[C@@H]([C@@H](C)O)C(=O)N[C@@H](CO)C(=O)N[C@@H]([C@@H](C)O)C(=O)N1)[C@@H](C)O)C(=O)N[C@@H](CC(C)C)C(=O)N1CCC[C@H]1C(=O)N1CCC[C@H]1C(=O)N[C@H](C(=O)N[C@@H](CCCCN)C(=O)N[C@H](C(=O)NCC(=O)N[C@@H](CO)C(=O)N[C@@H](CCC(=O)O)C(=O)N[C@H](C(=O)N[C@@H](Cc1ccc(O)cc1)C(N)=O)[C@@H](C)O)C(C)C)[C@@H](C)O
B4: Compound A76 (peptide)
peptide: SCNTSTCATQRLANEK([γGlu-C18 diacid])HKSSNNFGPILPPTKVGSETY-NH2
modifications: disulfide 2-7; N-terminus assumed
SMILES: CC[C@H](C)[C@H](NC(=O)[C@@H]1CCCN1C(=O)CNC(=O)[C@H](Cc1ccccc1)NC(=O)[C@H](CC(N)=O)NC(=O)[C@H](CC(N)=O)NC(=O)[C@H](CO)NC(=O)[C@H](CO)NC(=O)[C@H](CCCCN)NC(=O)[C@H](Cc1c[nH]cn1)NC(=O)[C@H](CCCCNC(=O)CC[C@H](NC(=O)CCCCCCCCCCCCCCCCC(=O)O)C(=O)O)NC(=O)[C@H](CCC(=O)O)NC(=O)[C@H](CC(N)=O)NC(=O)[C@H](C)NC(=O)[C@H](CC(C)C)NC(=O)[C@H](CCCNC(=N)N)NC(=O)[C@H](CCC(N)=O)NC(=O)[C@@H](NC(=O)[C@H](C)NC(=O)[C@@H]1CSSC[C@H](NC(=O)[C@@H](N)CO)C(=O)N[C@@H](CC(N)=O)C(=O)N[C@@H]([C@@H](C)O)C(=O)N[C@@H](CO)C(=O)N[C@@H]([C@@H](C)O)C(=O)N1)[C@@H](C)O)C(=O)N[C@@H](CC(C)C)C(=O)N1CCC[C@H]1C(=O)N1CCC[C@H]1C(=O)N[C@H](C(=O)N[C@@H](CCCCN)C(=O)N[C@H](C(=O)NCC(=O)N[C@@H](CO)C(=O)N[C@@H](CCC(=O)O)C(=O)N[C@H](C(=O)N[C@@H](Cc1ccc(O)cc1)C(N)=O)[C@@H](C)O)C(C)C)[C@@H](C)O
B5: Compound A55 (peptide)
peptide: K(C18 diacid)CNTSTCATSRLANFLQKSSNNFGPILPPTKVGSETY-NH2
modifications: disulfide 2-7; N-terminus assumed
SMILES: CC[C@H](C)[C@H](NC(=O)[C@@H]1CCCN1C(=O)CNC(=O)[C@H](Cc1ccccc1)NC(=O)[C@H](CC(N)=O)NC(=O)[C@H](CC(N)=O)NC(=O)[C@H](CO)NC(=O)[C@H](CO)NC(=O)[C@H](CCCCN)NC(=O)[C@H](CCC(N)=O)NC(=O)[C@H](CC(C)C)NC(=O)[C@H](Cc1ccccc1)NC(=O)[C@H](CC(N)=O)NC(=O)[C@H](C)NC(=O)[C@H](CC(C)C)NC(=O)[C@H](CCCNC(=N)N)NC(=O)[C@H](CO)NC(=O)[C@@H](NC(=O)[C@H](C)NC(=O)[C@@H]1CSSC[C@H](NC(=O)[C@@H](N)CCCCNC(=O)CCCCCCCCCCCCCCCCC(=O)O)C(=O)N[C@@H](CC(N)=O)C(=O)N[C@@H]([C@@H](C)O)C(=O)N[C@@H](CO)C(=O)N[C@@H]([C@@H](C)O)C(=O)N1)[C@@H](C)O)C(=O)N[C@@H](CC(C)C)C(=O)N1CCC[C@H]1C(=O)N1CCC[C@H]1C(=O)N[C@H](C(=O)N[C@@H](CCCCN)C(=O)N[C@H](C(=O)NCC(=O)N[C@@H](CO)C(=O)N[C@@H](CCC(=O)O)C(=O)N[C@H](C(=O)N[C@@H](Cc1ccc(O)cc1)C(N)=O)[C@@H](C)O)C(C)C)[C@@H](C)O

The binders below were run against T1, human amylin 3 receptor (assay: cell-based or functional assay).

Row | pEC50 (cAMP accumulation), 0% HSA [pEC50] | pEC50 (cAMP accumulation), 0.1% HSA [pEC50] | pEC50 (cAMP accumulation), 4% HSA [pEC50] | Binder
1 | 12.2 | 10.7 | 9.5 | B1
2 | 12.5 | 12.6 | 12.5 | KCNTATCATQRLANFLVHSSNNFGPILPPTNVGSNTY-NH2 (disulfide 2-7; ends not checked) [Pramlintide]
3 | 12 | 10.8 | 9.5 | B2
4 | 12.1 | 10.6 | 8.8 | B3
5 | 11.7 | 10.5 | 8.7 | B4
6 | 12.2 | 11.2 | 9.6 | B5

These binders were tested against T2, human calcitonin receptor (assay: cell-based or functional assay).

Row | pEC50 (cAMP accumulation), 0% HSA [pEC50] | pEC50 (cAMP accumulation), 0.1% HSA [pEC50] | pEC50 (cAMP accumulation), 4% HSA [pEC50] | Binder
7 | 11.7 | 10.4 | 8.8 | B1
8 | 11.4 | 11.2 | 11.1 | KCNTATCATQRLANFLVHSSNNFGPILPPTNVGSNTY-NH2 (disulfide 2-7; ends not checked) [Pramlintide]
9 | 11.7 | 10.5 | 9.3 | B2
10 | 11.3 | 9.6 | 7.9 | B3
11 | 10.5 | 9.4 | 8.1 | B4
12 | 11.3 | 10.2 | 8.8 | B5

Source: patent publication US20200115430A1 (I2O THERAPEUTICS, published 2020)
